Source: patent US20120070405A1

Columns and labels:
[1] = target: CXCR2 on purified human neutrophils (human) (UniProt P25025); assay: cell-based or functional assay
[2] = target: CXCR1 on CXCR1-transfected HEK293 cells (UniProt P25024); assay: cell-based or functional assay
Chain of UniProt P25024 (P25024 whole entry): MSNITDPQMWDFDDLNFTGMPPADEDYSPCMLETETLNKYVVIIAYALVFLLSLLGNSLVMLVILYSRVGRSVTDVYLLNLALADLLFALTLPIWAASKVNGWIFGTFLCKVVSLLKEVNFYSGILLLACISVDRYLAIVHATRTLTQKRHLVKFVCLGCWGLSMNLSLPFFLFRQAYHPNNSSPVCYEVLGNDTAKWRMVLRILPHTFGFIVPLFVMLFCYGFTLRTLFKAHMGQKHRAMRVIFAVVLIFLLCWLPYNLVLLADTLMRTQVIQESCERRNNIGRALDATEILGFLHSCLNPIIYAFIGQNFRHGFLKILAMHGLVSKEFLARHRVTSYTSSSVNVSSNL

Chain of UniProt P25025 (P25025 whole entry): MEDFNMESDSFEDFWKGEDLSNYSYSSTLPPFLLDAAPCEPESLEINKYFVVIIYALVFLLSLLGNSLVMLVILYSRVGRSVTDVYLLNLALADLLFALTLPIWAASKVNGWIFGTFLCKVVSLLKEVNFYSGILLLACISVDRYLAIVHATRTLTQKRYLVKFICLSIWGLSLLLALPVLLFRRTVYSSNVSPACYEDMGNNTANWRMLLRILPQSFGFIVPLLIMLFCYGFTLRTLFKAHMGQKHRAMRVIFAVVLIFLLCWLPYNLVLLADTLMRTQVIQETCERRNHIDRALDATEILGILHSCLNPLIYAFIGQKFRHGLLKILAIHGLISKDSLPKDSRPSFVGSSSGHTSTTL

intracellular Ca^++ flux in human neutrophils induced by CXCL1 (100 ng/ml), G31P at 10 ng/ml [1]: < 95 % reduced | intracellular Ca^++ flux in human neutrophils induced by CXCL5 (100 ng/ml), G31P at 10 ng/ml [1]: < 95 % reduced | CXCL8-induced chemotactic responses of CXCR1-transfected HEK293 cells (modified Boyden chamber), G31P at 10 ng/ml [2]: 80 % blocked
Substance: human GS-CXCL8(3-72)K11R/G31P (from UniProt P10145 30-99) (ligand)
